Among the data in patent publication US20250340607A1 (UNIVERSITY OF CHICAGO, published 2025) are Kd values, retold here.

The target of this test is T1, murine Flt3 (R&D 768-F3-050) (murine, UniProt Q00342 28-544).
T1 construct: Bought recombinant protein coated on the ELISA plate; also called receptor for Flt3L; recombinant CD135
T1 sequence (looked up): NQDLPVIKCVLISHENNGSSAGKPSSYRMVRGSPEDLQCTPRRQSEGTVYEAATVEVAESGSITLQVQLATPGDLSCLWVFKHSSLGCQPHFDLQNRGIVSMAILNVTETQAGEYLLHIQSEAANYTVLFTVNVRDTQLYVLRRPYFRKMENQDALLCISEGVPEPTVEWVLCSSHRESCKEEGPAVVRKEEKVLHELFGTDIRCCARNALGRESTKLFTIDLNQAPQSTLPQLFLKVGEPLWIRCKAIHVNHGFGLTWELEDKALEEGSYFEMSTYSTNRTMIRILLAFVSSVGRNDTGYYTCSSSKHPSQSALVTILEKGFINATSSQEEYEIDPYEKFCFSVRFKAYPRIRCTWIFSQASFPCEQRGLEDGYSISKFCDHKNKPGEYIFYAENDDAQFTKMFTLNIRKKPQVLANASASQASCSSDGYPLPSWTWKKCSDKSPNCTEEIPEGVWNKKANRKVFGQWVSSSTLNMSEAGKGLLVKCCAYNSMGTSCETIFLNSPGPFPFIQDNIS
As to the kind of experiment: ELISA: plate coated with murine Flt3, Flt3L variants titrated, detection with biotinylated anti-Flt3L and avidin-HRP. As to the method:
Protein was cloned, produced, and purified as described in methods. Following purification, bands were confirmed at the expected sizes via SDS-PAGE under reducing conditions (WT at around 30 KDa with multiple bands due to glycosylation differences and Flt3L-MSA at around 75 KDa). Binding of each protein to the receptor for Flt3L (murine Flt3, R&D 768-F3-050) was then confirmed via ELISA. Briefly, high binding plates were coated overnight with 50 μL of 1 nM protein in a Carb/Bicarb buffer pH of 9. The plates were then washed and blocked using R&D blocking buffer before the addition of Flt3L variants at different concentrations in blocking buffer. Detection occurred using biotinylated αFlt3L and subsequent incubation with avidin-HRP. Binding was then visualized via incubation with TMB solution until highest concentrations reached an approximate absorbance of 1 and the reaction was stopped using 2N H2SO4.
High-bind plates (Corning #9018) were coated by incubating overnight at 4 C with 10 nM recombinant CD135 (R&D 768-F3-050) in […] sodium bicarbonate buffer at pH 9.2. Following coating, plates were washed in PBST before blocking in 1× reagent diluent (R&D DY995) for 2 hours at RT. Samples were then diluted to the indicated concentration in triplicate using the same reagent diluent. […] Quantification occurred by reading the absorbance at 450 nm and 570 nm.
Background: ELISA stands for enzyme-linked immunosorbent assay.

B1: wild type murine Flt3L (ligand)
chain: MTPDCYFSHSPISSNFKVKFRELTDHLLKDYPVTVAVNLQDEKHCKALWSLFLAQRWIEQLKTVAGSKMQTLLEDVNTEIHFVTSCTFQPLPECLRFVQTNISHLLKDTCTQLLALKPCIGKACQNFSRCLEVQCQPDSSTLLPPRSPIALEATELPEPRPRQ
notes: Made in HEK293F cells and glycosylated (multiple bands around 30 kDa); also called WT Flt3L; WT; not shown: it was purified over a HisTrap HP column, so it probably carries a His tag
Molecule B1 returned a Kd of 0.16 nM.

B2: Flt3L fused to Mouse Serum Albumin (Flt3L-MSA) (other)
chain: MTPDCYFSHSPISSNFKVKFRELTDHLLKDYPVTVAVNLQDEKHCKALWSLFLAQRWIEQLKTVAGSKMQTLLEDVNTEIHFVTSCTFQPLPECLRFVQTNISHLLKDTCTQLLALKPCIGKACQNFSRCLEVQCQPDSSTLLPPRSPIALEATELPEPRPRQGGGGSGGGGSEAHKSEIAHRYNDLGEQHFKGLVLIAFSQYLQKCSYDEHAKLVQEVTDFAKTCVADESAANCDKSLHTLFGDKLCAIPNLRENYGELADCCTKQEPERNECFLQHKDDNPSLPPFERPEAEAMCTSFKENPTTFMGHYLHEVARRHPYFYAPELLYYAEQYNEILTQCCAEADKESCLTPKLDGVKEKALVSSVRQRMKCSSMQKFGERAFKAWAVARLSQTFPNADFAEITKLATDLTKVNKECCHGDLLECADDRAELAKYMCENQATISSKLQTCCDKPLLKKAHCLSEVEHDTMPADLPAIAADFVEDQEVCKNYAEAKDVFLGTFLYEYSRRHPDYSVSLLLRLAKKYEATLEKCCAEANPPACYGTVLAEFQPLVEEPKNLVKTNCDLYEKLGEYGFQNAILVRYTQKAPQVSTPTLVEAARNLGRVGTKCCTLPEDQRLPCVEDYLSAILNRVCLLHEKTPVSEHVTKCCSGSLVERRPCFSALTVDETYVPKEFKAETFTFHSDICTLPEKEKQIKKQTALAELVKHKPKATAEQLKTVMDDFAQFLDTCCKAADKDTCFSTEGPNLVTRCKDALAHHHHHH
notes: also called MSA fused Flt3L; Flt3L-SA
B2 registered a Kd of 0.16 nM.

Broadly, the Kd is a measure of binding affinity in units of concentration. Read a high Kd as weaker binding.
